B1: HalM1 (protein)
chain: MRELQNALYFSEVVFGPNLEKIVGEKRLNFWLKLIGEDPENLKEFLSRKGNSFEEQTLPEKEAIVPNRLGEEALEKVREELEFLNTYSTKHVRRVKELGVQIPFEGILLPFISMYIEKFQQQQLRKKIGPIHEEIWTQIVQDITSKLNAILHRTLILELNVARVTSQLKGDTPEERFAYYSKTYLGKREVTHRLYSEYPVVLRLLFTTISHHISFITEILERVANDREAIETEFSPCSPIGTLASLHLNSGDAHHKQRTVTILEFSSSLKLVYKPRSLKVDGVFNGLLAFLNDRTGEVIKDQYCPKVLQRDGYGYVEFVTHQSCQSLEEVSDFYERLGSLMSLSYVLNSSDFHFENIIAHGPYPVLIDLETIIHNTADSSEETSTAMDRAFRMLNDSVLSTGMLPSSIYYRDQPNMKGLNVGGVSKSEGQKTPFKVNQIANRNTDEMRIEKDHVTLSSQKNLPIFQSAAMESVHFLDQIQKGFTSMYQWIEKNKQEFKEQVRKFEGVPVRAVLRSTTRYTELLKSSYHPDLLRSALDREVLLNRLTVDSVMTPYLKEIIPLEVEDLLNGDVPYFYTLPEERALYQEASAINSTFFTTSIFHKIDQKIDKLGIEDHTQQMKILHMSMLASNANHYADVADLDIQKGHTIKNEQYVEMAKDIGDYLMELSVEGENQGEPDLCWISTVLEGSSEIIWDISPVGEDLYNGSAGVALFYAYLFKITGEKRYQEIAYKALVPVRRSVAQFQHHPNWSIGAFNGASGYLYAMGTIAALFNDERLKHEVTRSIPHIEPMIHEDKIYDFIGGSAGALKVFLSLSGLFDEPKFLELAIACSEHLMKNAIKTDQGIGWKPPWEVTPLTGFSHGVSGVMASFIELYQQTGDERLLSYIDQSLAYERSFFSEQEENWLTPNKETPVVAWCHGAPGILVSRLLLKKCGYLDEKVEKEIEVALSTTIRKGLGNNRSLCHGDFGQLEILRFAAEVLGDSYLQEVVNNLSGELYNLFKTEGYQSGTSRGTESVGLMVGLSGFGYGLLSAAYPSAVPSILTLDGEIQKYREPHEANH
B2: HalM2 (protein)
chain: TPLTSEHPSVPTTLPHTNDTDWLEQLHDILSIPVTEEIQKYFHAENDLFSFFYTPFLQFTYQSMSDYFMTFKTDMALIERQSLLQSTLTAVHHRLFHLTHRTLISEMHIDKLTVGLNGSTPHERYMDFNHKFNKTSKSKNLFNIYPILGKLVVNETLRTINFVKKIIQHYMKDYLLLSDFFKEKDLRLTNLQLGVGDTHVNGQCVTILTFASGQKVVYKPRSLSIDKQFGEFIEWVNSKGFQPSLRIPIAIDRQTYGWYEFIPHQEATSEDEIERYYSRIGGYLAIAYLFGATDLHLDNLIACGEHPMLIDLETLFTNDLDCYDSAFPFPALARELTQSVFGTLMLPITIASGKLLDIDLSAVGGGKGVQSEKIKTWVIVNQKTDEMKLVEQPYVTESSQNKPTVNGKEANIGNYIPHVTDGFRKMYRLFLNEIDELMDHNGPIFAFESCQIRHVFRATHVYAKFLEASTHPDYLQEPTRRNKLFESFWNITSLMAPFKKIVPHEIAELENHDIPYFVLTCGGTIVKDGYGRDIADLFQSSCIERVTHRLQQLGSEDEARQIRYIKSSLATLTNGDWTPSHEKTPMSPASADREDGYFLREAQAIGDDILAQLIWEDDRHAAYLIGVSVGMNEAVTVSPLTPGIYDGTLGIVLFFDQLAQQTGETHYRHAADALLEGMFKQLKPELMPSSAYFGLGSLFYGLMVLGLQRSDSHIIQKAYEYLKHLEECVQHEETPDFVSGLSGVLYMLTKIYQLTNEPRVFEVAKTTASRLSVLLDSKQPDTVLTGLSHGAAGFALALLTYGTAANDEQLLKQGHSYLVYERNRFNKQENNWVDLRKGNAYQTFWCHGAPGIGISRLLLAQFYDDELLHEELNAALNKTISDGFGHNHSLCHGDFGNLDLLLLYAQYTNNPEPKELARKLAISSIDQAHTYGWKLGLNHSDQLQGMMLGVTGIGYQLLRHINPTVPSILALELPSSTLTEKELRIHDR

Assays:
HalA1 = biological target: T1, HalA1
T1 chain: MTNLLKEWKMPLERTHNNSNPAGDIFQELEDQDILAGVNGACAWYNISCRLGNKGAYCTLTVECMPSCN

HalA2 = biological target: T2, HalA2
T2 chain: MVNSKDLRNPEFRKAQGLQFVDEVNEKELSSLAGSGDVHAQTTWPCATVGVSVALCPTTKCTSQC

Protein | dehydration of the peptide, MALDI-TOF MS (HalA1) | iodoacetamide alkylation of free cysteines after HalM modification (cyclization), MALDI-TOF MS (HalA1) | dehydration of the peptide, MALDI-TOF MS (HalA2) | iodoacetamide alkylation of free cysteines after HalM modification (cyclization), MALDI-TOF MS (HalA2)
B1 | Incubation of HalA1 with HalM1 generated a species that was dehydrated 3-fold | The mass of HalA1 after modification by HalM1 was increased by 116 Da, consistent with the addition of two adducts | Incubation of HalA1 with HalM2 or HalA2 with HalM1 did not result in modified peptide in either case | 
B2 | Incubation of HalA1 with HalM2 or HalA2 with HalM1 did not result in modified peptide in either case |  | incubation of HalA2 with HalM2 generated a species that was dehydrated 7-fold | The mass of HalA2 modified by HalM2 remained unchanged under the alkylation conditions tested, consistent with the absence of free Cys residues

Reference: US20080242617
